Some targets named below: CALCR-RAMP2 (UniProt P30988 25-474; O60895 43-175, limits assumed); GRPR (UniProt P30550 1-384); HRH3 (UniProt Q9Y5N1 1-445, limits assumed); SSTR5 (UniProt P35346 1-364).
Assay in all cases: cell-based or functional assay
The target in the next test is T1, AGTR1 (UniProt P30556 1-359).
T1 sequence (looked up): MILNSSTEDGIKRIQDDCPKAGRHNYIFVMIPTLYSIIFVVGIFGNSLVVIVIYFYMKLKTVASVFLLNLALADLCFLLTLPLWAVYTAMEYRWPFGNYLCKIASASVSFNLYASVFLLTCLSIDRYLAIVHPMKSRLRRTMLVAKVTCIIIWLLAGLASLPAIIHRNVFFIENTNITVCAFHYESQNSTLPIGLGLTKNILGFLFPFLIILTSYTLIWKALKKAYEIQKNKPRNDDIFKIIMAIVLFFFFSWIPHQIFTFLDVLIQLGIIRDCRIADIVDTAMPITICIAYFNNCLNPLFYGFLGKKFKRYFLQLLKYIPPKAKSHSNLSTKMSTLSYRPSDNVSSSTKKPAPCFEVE

Another test has as its target T2, NPSR1B (UniProt Q6W5P4-4 1-377, limits assumed).
T2 sequence (looked up): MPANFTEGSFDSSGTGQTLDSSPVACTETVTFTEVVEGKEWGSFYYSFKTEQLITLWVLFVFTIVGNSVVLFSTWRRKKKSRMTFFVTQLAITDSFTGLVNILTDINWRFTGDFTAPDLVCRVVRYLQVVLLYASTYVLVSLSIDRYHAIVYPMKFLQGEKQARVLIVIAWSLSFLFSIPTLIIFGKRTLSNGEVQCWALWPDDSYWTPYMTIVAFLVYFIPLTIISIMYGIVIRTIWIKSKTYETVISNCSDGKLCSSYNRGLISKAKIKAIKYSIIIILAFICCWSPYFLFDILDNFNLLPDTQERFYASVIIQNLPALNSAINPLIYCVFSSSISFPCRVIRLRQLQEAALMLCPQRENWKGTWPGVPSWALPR

The target of a further test is T3, GPR120 (UniProt Q5NUL3 1-361, limits assumed).
T3 sequence (looked up): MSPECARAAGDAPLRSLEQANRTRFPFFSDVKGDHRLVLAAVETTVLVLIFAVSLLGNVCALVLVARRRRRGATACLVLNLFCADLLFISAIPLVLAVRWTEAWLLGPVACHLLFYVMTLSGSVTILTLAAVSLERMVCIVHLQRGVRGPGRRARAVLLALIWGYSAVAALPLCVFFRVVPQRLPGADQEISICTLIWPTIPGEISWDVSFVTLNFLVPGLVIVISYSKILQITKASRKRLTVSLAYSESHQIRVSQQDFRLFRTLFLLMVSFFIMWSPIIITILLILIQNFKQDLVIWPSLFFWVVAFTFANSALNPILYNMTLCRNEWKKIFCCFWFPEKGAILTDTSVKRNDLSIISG

The next test addresses T4, CRTH2 (UniProt Q9Y5Y4 1-395).
T4 sequence (looked up): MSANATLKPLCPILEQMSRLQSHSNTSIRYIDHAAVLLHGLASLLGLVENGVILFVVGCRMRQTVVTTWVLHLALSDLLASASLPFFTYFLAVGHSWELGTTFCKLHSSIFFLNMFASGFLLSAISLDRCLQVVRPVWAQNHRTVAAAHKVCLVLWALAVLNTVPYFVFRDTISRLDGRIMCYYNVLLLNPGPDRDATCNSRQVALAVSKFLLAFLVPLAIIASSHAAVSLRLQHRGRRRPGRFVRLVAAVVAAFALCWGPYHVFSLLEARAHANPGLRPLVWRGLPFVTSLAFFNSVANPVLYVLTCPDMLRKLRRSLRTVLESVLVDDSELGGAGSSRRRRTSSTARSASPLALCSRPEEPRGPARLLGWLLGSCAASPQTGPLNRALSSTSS

Another test has as its target T5, FPRL1 (UniProt P25090 1-351).
T5 sequence (looked up): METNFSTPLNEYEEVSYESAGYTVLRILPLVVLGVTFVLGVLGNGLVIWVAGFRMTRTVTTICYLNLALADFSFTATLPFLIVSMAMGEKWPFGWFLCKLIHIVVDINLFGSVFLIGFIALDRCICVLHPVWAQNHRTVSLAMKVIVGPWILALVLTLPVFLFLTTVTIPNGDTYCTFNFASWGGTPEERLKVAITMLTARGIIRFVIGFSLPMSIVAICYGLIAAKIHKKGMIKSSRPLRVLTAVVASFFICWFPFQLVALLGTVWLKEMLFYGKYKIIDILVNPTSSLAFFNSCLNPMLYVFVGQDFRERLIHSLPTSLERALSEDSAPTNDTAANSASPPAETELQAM

Another test has as its target T6, GALR1 (UniProt P47211 1-349).
T6 sequence (looked up): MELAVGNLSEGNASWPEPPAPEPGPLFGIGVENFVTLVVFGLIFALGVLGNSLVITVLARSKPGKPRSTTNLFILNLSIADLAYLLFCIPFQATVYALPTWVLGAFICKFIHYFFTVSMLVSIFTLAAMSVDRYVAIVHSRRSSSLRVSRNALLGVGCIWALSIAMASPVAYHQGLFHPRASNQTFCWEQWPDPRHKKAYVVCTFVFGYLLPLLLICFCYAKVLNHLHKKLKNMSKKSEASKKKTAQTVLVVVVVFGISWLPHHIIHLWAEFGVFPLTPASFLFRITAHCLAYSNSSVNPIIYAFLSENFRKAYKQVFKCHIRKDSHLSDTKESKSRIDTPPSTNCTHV

Another test addresses T7, CCR1 (UniProt P32246 1-355).
T7 sequence (looked up): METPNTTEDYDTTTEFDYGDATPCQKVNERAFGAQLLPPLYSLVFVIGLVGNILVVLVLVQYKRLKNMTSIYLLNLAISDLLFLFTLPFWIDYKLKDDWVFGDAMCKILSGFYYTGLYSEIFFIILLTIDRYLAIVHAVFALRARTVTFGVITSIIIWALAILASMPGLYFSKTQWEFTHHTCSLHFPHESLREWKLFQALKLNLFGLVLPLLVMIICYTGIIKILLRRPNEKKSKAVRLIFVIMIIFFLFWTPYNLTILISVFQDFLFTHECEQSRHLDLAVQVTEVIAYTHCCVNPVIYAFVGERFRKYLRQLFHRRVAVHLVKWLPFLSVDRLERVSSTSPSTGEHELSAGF

Where no end group is shown, it is not given here.

Chain of HRH3 (Q9Y5N1 whole entry): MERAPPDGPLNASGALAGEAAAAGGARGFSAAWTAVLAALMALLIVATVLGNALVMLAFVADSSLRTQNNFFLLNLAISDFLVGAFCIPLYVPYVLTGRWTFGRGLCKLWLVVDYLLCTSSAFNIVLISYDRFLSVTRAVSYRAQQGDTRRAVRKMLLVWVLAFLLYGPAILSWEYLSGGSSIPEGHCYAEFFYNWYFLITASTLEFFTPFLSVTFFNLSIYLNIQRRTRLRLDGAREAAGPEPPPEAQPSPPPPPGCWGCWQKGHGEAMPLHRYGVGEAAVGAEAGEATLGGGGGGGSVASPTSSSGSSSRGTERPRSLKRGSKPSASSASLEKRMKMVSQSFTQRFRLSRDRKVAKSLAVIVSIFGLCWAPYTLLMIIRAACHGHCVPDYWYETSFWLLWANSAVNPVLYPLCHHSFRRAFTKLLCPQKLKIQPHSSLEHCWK
Chain of GRPR (P30550 whole entry): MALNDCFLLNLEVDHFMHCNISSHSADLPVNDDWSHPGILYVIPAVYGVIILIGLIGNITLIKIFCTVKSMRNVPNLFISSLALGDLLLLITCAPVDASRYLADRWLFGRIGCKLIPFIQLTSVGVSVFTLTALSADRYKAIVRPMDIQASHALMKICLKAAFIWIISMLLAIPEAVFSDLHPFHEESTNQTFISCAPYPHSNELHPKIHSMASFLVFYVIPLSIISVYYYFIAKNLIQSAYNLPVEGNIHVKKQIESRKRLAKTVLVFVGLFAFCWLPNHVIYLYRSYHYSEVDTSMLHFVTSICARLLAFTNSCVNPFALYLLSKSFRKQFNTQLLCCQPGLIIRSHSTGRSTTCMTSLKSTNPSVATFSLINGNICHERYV
Chain of CALCR-RAMP2 (P30988 25-474 limits assumed, chain 1 of 2): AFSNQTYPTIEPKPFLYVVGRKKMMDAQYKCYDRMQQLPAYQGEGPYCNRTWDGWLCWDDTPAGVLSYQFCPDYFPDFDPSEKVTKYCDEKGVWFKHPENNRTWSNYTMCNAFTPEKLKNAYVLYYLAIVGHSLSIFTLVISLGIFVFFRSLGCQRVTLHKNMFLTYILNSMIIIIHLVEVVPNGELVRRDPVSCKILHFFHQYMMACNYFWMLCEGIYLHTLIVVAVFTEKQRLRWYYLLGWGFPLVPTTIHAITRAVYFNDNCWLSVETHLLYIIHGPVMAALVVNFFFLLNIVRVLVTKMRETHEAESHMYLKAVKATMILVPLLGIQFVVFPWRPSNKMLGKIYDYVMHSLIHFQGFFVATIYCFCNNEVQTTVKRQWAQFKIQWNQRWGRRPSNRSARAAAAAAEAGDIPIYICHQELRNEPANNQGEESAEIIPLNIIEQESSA
Chain of CALCR-RAMP2 (O60895 43-175 limits assumed, chain 2 of 2): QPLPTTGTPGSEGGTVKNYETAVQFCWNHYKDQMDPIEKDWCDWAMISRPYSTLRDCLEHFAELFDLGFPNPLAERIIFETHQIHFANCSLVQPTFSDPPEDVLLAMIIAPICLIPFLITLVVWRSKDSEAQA
Chain of SSTR5 (P35346 whole entry): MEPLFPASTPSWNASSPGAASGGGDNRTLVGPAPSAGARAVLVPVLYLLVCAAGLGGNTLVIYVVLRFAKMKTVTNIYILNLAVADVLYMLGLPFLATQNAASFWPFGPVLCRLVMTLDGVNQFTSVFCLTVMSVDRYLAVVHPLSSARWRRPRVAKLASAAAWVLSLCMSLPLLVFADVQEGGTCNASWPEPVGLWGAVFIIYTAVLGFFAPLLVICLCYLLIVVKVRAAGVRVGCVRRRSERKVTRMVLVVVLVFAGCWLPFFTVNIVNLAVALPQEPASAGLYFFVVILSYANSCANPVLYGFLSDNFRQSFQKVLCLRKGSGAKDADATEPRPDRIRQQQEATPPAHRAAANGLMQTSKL

B1: octadecaneuropeptide (ODN) (peptide)
peptide: QATVGDVNTDRPGLLDLK
modifications: also: synthesised on Rink amide resin, C-terminal amide not given here outright
Consider B1, for which the “% Activity, arrestin, antagonist mode, 2.5 uM” value is -8.5% with AGTR1; -17.8% with CALCR-RAMP2; 15.5% with NPSR1B; 22.7% with GPR120; -12.2% in the test with GRPR; -8.6% with HRH3. Moreover, the “% Activity, arrestin, antagonist mode, 2.5 uM” value was 0.6% with CRTH2; -17.7% in the test with FPRL1; -22.5% with GALR1; -5.4% with CCR1; -17.3% with SSTR5.

The values are drawn from patent US20260184748A1 (University of Pennsylvania, published 2026).
